Assay results as given in patent US6352972.

Biological target: collagen (collagen-coated wells, source not stated)
Assay: cell-based or functional assay

proliferation of 3T3 cells: 15 fold
Substance: human platelet-derived TGFβ1 (commercial) (from UniProt P01137 279-390) (ligand)
